Here are results for one molecule from article PMC4765800, “Transcription factor StWRKY1 regulates phenylpropanoid metabolites conferring late blight resistance in potato”.

For the series, the target named is StWRKY1 (Solanum tuberosum, UniProt Q9LEC7 1-172). The series is described as follows: EMSA; shift inhibited by excess unlabelled competitor; poly(dI-dC); EMSA: 20 ul with kit binding buffer (LightShift), 1 ul each of 1 ug/ul poly(dI-dC), 50% glycerol, 1% NP-40, 1 M KCl, 100 mM MgCl2, 200 mM EDTA; 3 ug protein, 20 fmol probe; 25 C, 20 min; pH not stated. As to conditions: protein: recombinant; label: 3' biotin; blunt.
Chain of StWRKY1 (Q9LEC7 entry or part of it): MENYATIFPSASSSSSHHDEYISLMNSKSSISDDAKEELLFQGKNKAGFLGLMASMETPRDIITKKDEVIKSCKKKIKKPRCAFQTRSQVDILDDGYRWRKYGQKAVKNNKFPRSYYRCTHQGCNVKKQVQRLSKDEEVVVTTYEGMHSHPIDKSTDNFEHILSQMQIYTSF

B1: THT promoter W1-box probe (dsDNA)
DNA 1: TCGTCAGAGTTGACCTCCACCAACCA
DNA 2: TGGTTGGTGGAGGTCAACTCTGACGA
Take B1: the binding result is given as “binds”.
